Measurements as given in paper PMC6327041, “Histone H3 binding to the PHD1 domain of histone demethylase KDM5A enables active site remodeling” (Nature Communications, 2019).

B1: unmodified H3 10mer effector peptide (H3 Ala1-Ser10) [not stated] / GST-PHD1 (S287-K347) of KDM5A [human] (parent)
chain 1: ARTKQTARKS
chain 2: SVNFVDLYVCMFCGRGNNEDKLLLCDGCDDSYHTFCLIPPLPDVPKGDWRCPKCVAEECSK

Variants of: B1
Assay: competition-based fluorescence polarization assay
Settings: with GST-PHD1 (S287-K347) of KDM5A [human]

Which Kd does the source give for chain 1 AATKQTARKS [chain 1 R2A] here?
The Kd was 205 µM.
